From article PMC9210681
Changes are numbered by the printed parent chain.

Assays:
[1] = molecular target: His6-AtsR (Corynebacterium glutamicum); assay: cross-linking; disulfide bond formed by oxidant: 20 µM protein with 5 mM H2O2 or 4 mM CHP for 30 min, boiled, 15% nonreducing SDS-PAGE, Coomassie stain
[2] = molecular target: AtsR (NCgl0886), native protein as run on the size exclusion column (Corynebacterium glutamicum); assay: not stated; reduced AtsR, Additional file 1 Fig. S10A (Purification of AtsR)
[3] = molecular target: AtsR (NCgl0886), native protein as run on the size exclusion column (Corynebacterium glutamicum); assay: SEC; Superdex 200 10/300 GL; AtsR incubated with an oxidant before the run (CHP in the text, H2O2 in the legend); two species, oxidized dimer and native dimer
[4] = molecular target: AtsR (NCgl0886), native protein as run on the size exclusion column (Corynebacterium glutamicum); assay: SEC; Superdex 200 10/300 GL, 50 mM potassium phosphate pH 7.4, 0.15 M NaCl, calibrated with mass markers; native AtsR untreated; AtsR:C123SC187S reduced (20 µM protein with 50 mM DTT)
[5] = system: AtsR (NCgl0886) (Corynebacterium glutamicum (RES167 parental strain)); assay: EMSA; conditions: apparent KD; 10 mM Tris-HCl pH 7.4 (Fig. 6A legend: pH 8.0), 5 mM MgCl2, 50 mM KCl, 5% glycerol, 0.1% NP40, 1 ug poly(dI:dC), 1 mM DTT, 20 ul, 40 ng DNA, room temperature …
[6] = system: AtsR:C123SC187S (Corynebacterium glutamicum (RES167 parental strain)); assay: EMSA; conditions: apparent KD; unit inferred, nM implied from AtsR; 10 mM Tris-HCl pH 7.4 (Fig. 6A legend: pH 8.0), 5 mM MgCl2, 50 mM KCl, 5% glycerol, 0.1% NP40, 1 ug poly(dI:dC), 1 mM DTT, 20 ul, 40 ng DNA, room temperature …
[7] = system: T1, AtsR (NCgl0886) (Corynebacterium glutamicum (RES167 parental strain)), ORF:74efc9ce; assay: EMSA; conditions: 10 mM Tris-HCl pH 7.4 (Fig. 6A legend: pH 8.0), 5 mM MgCl2, 50 mM KCl, 5% glycerol, 0.1% NP40, 1 ug poly(dI:dC), 1 mM DTT, 20 ul, 40 ng DNA, room temperature …
T1 sequence: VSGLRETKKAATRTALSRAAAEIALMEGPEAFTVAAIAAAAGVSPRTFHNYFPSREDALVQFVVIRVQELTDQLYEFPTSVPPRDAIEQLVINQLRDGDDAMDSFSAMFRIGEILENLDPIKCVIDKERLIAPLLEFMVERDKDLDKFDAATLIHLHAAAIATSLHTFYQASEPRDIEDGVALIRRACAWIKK

[8] = molecular target: His-tag-free AtsR:C123SC187S (Corynebacterium glutamicum); assay: SEC; Superdex 200 10/300 GL, 50 mM potassium phosphate pH 7.4, 0.15 M NaCl, calibrated with mass markers; native AtsR untreated; AtsR:C123SC187S reduced (20 µM protein with 50 mM DTT)
[9] = system: T2, AtsR:C123SC187S C123S;C188S (Corynebacterium glutamicum (RES167 parental strain)), ORF:74efc9ce; assay: EMSA; conditions: 10 mM Tris-HCl pH 7.4 (Fig. 6A legend: pH 8.0), 5 mM MgCl2, 50 mM KCl, 5% glycerol, 0.1% NP40, 1 ug poly(dI:dC), 1 mM DTT, 20 ul, 40 ng DNA, room temperature …
T2 sequence: T1 sequence with C123S, C188S

His6-AtsR (natural protein)
stoichiometry N [1]: 2

AtsR (NCgl0886), native protein as run on the size exclusion column (natural protein)
stoichiometry N [2]: 2
stoichiometry N [3]: 2
stoichiometry N [4]: 2

Pncgl0887 (fragment A, 232 bp)
Kd [5]: 34 nM
Kd [6]: 42 nM

GTGGGCAGCGGAATTTCCATACCTTTAAGGATATGCACCGGGGGAAACTATGGGGATTTTGGGGGAGGTTGTTACAAAACCATACGTCTGTGAAGATATGACGAGTGCATGCCCAAAATAATGCATAGGAAAAAGGAAGAGTTAACAATGCGTAAAGGAATTTCCCGCGTCCTCTCGGTAGCGGTTGCTAGTTCTATTGGATTCG (double strand) [Pncgl0884 (205 bp)]
binding [7]: no binding

His-tag-free AtsR:C123SC187S (natural protein)
stoichiometry N [8]: 2

GCCCACAGCATAGAACTAAAACAGTATGCTTGTCCTGCTAAATGTGAATTTTTAAGAGATTCATCCCACACAATTACGAAAAAACCAGATTGCCCACAAATTAGTCTTCGAACTTTAATCAACACCACACCCAAAGCTAAACTTGCGCTCGTTGTGCAAAATTGCATTCAGGCTGAAAAATTCCTAAAGGGACTCCGTCCGAATAATTGGAAAGCCCAGAAGAACAGTCAAC (double strand) [Pncgl0887 (fragment A, 232 bp)]
Kd [7]: 34 nM
binding [7]: binds
Kd [9]: 42 nM
binding [9]: binds

GTTGTAGACAACAGTCAGATCGCCGTCATCGTATTCATCAAGAATATTGGTGACCTTCTCACGATCCTCTGCGGATATATCCATGGCAGAATCTGCATCAAAAGTCATCGAGATGATGCCGGTAGTCTCATCTGCACTCAGTGGACTAATCGACTCAATATCTGCGGCGATCTTCTCCGCAGGTACACCCTGAGCCTCCAGGGCTGGGGTCATCTGAGCAGCCACACCCTG (double strand) [ncgl0887 coding region control (232 bp)]
binding [7]: no binding
